Measured values reported in patent publication KR20120134547A.
Bridge positions count the residues as written; N and C are the ends. Ends that are not written are not given here.

Molecular target: TAB-XC154 자가면역항체
Assay: competition: XC154 antibody (100 ng) pre-incubated with 10^11 or 10^12 XC154p1 phage, then flow cytometry on HepG2 or LnCap-LN3 cells

CLPSWFHRC (disulfide 1-9 (inferred); also: displayed on phage) [XC154p1 에피토프 발현 파아지 (…)] was tested, and the percent inhibition was > 90%.
